Sequences and labels used below:
T1: TCR gamma/delta constant region (TRGDC) (human, UniProt P0CF51 1-173; B7Z8K6 1-153)
T1 chain (looked up) 1: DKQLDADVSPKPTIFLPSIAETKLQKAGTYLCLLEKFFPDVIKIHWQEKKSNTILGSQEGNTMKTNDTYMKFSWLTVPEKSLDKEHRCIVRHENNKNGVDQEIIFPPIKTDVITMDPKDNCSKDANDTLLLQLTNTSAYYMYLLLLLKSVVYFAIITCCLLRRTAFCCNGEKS
T1 chain (looked up) 2: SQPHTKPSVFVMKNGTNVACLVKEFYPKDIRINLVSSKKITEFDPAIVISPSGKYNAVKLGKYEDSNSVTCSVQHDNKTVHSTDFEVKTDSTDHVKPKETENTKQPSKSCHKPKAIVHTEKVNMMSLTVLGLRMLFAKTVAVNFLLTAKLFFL

T2: T cell receptor (TCR) Vγ9 (TRGV9) (human, UniProt Q99603 21-122)
T2 sequence (looked up): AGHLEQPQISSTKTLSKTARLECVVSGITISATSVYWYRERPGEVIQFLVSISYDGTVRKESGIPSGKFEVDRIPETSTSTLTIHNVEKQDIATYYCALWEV

B1: VG9B136 (antibody, human IgG1, kappa, V domains shown)
VH: QVQLQQSGPGLVKPSQTLSLTCAISGDSVSSNRAAWNWIRQSPSKGLEWLGRTYYRSKWYNEYAASVKSRMSINPDTSKNQFSLQLNSVTPEDTALYYCARDLWELREACDIWGQGTMVTVSS
VL: DIVMTQSPSFLSTFVGDRVTITCRASQGISSYLAWYQQKPGKVPKLLIYVASTLQSGVPSRFSGSGSGTEFTLTISSLQPEDFATYYCQQLNSYPFTFGPGTKVDIKR
B2: VG9B369 (antibody, human IgG1, kappa, V domains shown)
VH: EVQLLESGPTLVKPTQTLTLTCTFSGFSLSTIGVGVGWIRQPPGKALEWLSLIYWNDDKRYNPSLKSRLTITKDTSKNQVVLTMTNMDPVDTATYYCAHSHDWVHAFDIWGQGTMVTVSS
VL: DIVMTQSPSSLSASVGDRVTITCQASQDISHYLNWYQQKPGKAPKFLIYDASNLDTGVPSRFSGSGSGTDFTFTISSLQPEDIATYYCQQYDNFPLTFGGGTKVEIKR
B3: VG9B144 (antibody, human IgG1, lambda, V domains shown)
VH: QVQLVQSGAEVKKPGASVKVSCKASGYTFTGYYMHWMRQAPGQGLEWMGWINPNSGATNKEQKFQGRVTMTRDTSISTAYMELSRLRSDDTAVYYCAREDDAFDVWGQGTMVTVSS
VL: SSELTQDPAVSVALGQTVRITCQGDNLRNYYATWFQQKPGQAPVLVFFGKNNRPSGIPDRFSGSSSGDTASLTITGAQAEDEADYYCNSRDSSGNHVVFGGGTKLTVLG
B4: VG9B140 (antibody, human IgG1, kappa, V domains shown)
VH: EVQLVESGGGLVKPGGSLRLSCAGSGFTFRSYDMNWVRQAPGKGLEWVSSISTSSGYIYYADSVKGRFTISRDNAKNSLSLQMNSLRAEDTAVFYCARDRGIAVAGDYYYGMDVWGQGTMVTVSS
VL: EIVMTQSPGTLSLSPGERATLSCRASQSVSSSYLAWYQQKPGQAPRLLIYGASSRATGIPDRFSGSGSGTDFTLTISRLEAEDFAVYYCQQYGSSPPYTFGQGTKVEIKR
B5: VG9B429 (antibody, human IgG1, kappa)
heavy: not shown
light: DIQMTQSPSSVSASVGDRVTITCRASQGINSWLAWYQQKPGNAPKLLIYAASSLQSGVPSRFSGIGSGTDFIFTISSLQPEDFASYYCQQANSFPWTFGQGTRLEIKRTVAAPSVFIFPPSDEQLKSGTASVVCLLNNFYPREAKVQWKVDNALQSGNSQESVTEQDSKDSTYSLSSTLTLSKADYEKHKVYACEVTHQGLSSPVTKSFNRGEC
B6: VG9B414 (antibody, human IgG1, kappa)
heavy: not shown
light: EIVMTQSPSSVSASVGDRVTITCRASQGINSWLAWYQQKPGNAPKLLIYAASSLQSGVPSRFSGIGSGTDFIFTISSLQPEDFASYYCQQANSFPWTFGQGTRLEIKRTVAAPSVFIFPPSDEQLKSGTASVVCLLNNFYPREAKVQWKVDNALQSGNSQESVTEQDSKDSTYSLSSTLTLSKADYEKHKVYACEVTHQGLSSPVTKSFNRGEC
B7: VG9B195 (antibody, human IgG1, lambda, V domains shown)
VH: EVQLVESGGGLVKPGGSLRLSCAASGFTFSPYTMNWVRQAPGKGLEWVSSISSSSSYMYYADSVKGRFTISRDNAKNSLYLQMNSLRAEDTAVYYCARDGDLVGPTYYFDYWGQGTLVTVSS
VL: SYELMQPPSVSVSPGQTASITCSGDKLGDKYACWYQQKPGQSPVLVIYQHNKRPSGIPERFSGSNSGKTATLTISGTQAMDEADYYCQAWDSTTVVFGGGTKLTVLG
B8: VG9B46 (antibody, human IgG1, kappa, V domains shown)
VH: EVQLVESGGGLVKPGGSLRLSCEASGFTFSINSMNWVRQAPGKGLEWVSSISSTSDYIFNADSVKGRFTISRDNAKNSLYLQMNSLRAEDTAVYYCVRDDVFGAFDIWGQGTMVTVSS
VL: EIVLTQSPGTLSLSPGERATLSCRTSQSVSRSYLGWYQQKPGQPPRLLIFGSSSRATGIPDRFSGSGSGTDFTLTISRLEPEDFAVYYCQQYSRSPLTFGGGTKVDIKR
B9: VG9B416 (antibody, human IgG1, kappa)
heavy: not shown
light: EIVLTQSPGTLSLSPGDRATLSCRASQSVASSYLAWYQQKPGQSPRLLIYGASSRATGIPDRFSGSGSGTDFTLTISRLEPEDFAVYYCQQYGSSPPYTFGQGTKLEIKRTVAAPSVFIFPPSDEQLKSGTASVVCLLNNFYPREAKVQWKVDNALQSGNSQESVTEQDSKDSTYSLSSTLTLSKADYEKHKVYACEVTHQGLSSPVTKSFNRGEC
B10: VG9B54 (antibody, human IgG1, kappa, V domains shown)
VH: EVQLVESGGGLVKPGGSLRLSCAASGFAFSSYSLTWVRQAPGKGLEWVSSISSSSSYIFYADSVKGRFTISRDNAKNSLYLQMNSLRAEDTAVYYCATDGELGPFDYWGQGTTVTVSS
VL: EIVMTQSPGTLSLSPGERATLSCRASQSVSSSYLAWFQQKPGQAPRRLIYGASSRATGIPDRFSGSGSGTDFTLTISRLEPEDFAVYYCQQYGRSPLTFGGGTKVEIKR
B11: VG9B80 (antibody, human IgG1, kappa, V domains shown)
VH: EVQLVQSGGGLVKSGGSLRLSCAASGFTFSTYSMNWVRQAPGKGLEWVSSISSSSSYIFYADSVKGRIIISRDNAKNSLYLQMNSVRADDTAVYYCAKDGELGVFDYWGQGTLVTVSS
VL: EIVLTQSPGTLSLSAGERATLSCRASQSISSSYLAWYQQKPGQAPRVLIYGPSGRATGIPDRFRGSGSGTDFTLTISRLEPEDFAVYYCQQFGRSPLTFGGGTKVEIKR
B12: VG9B121 (antibody, human IgG1, kappa, V domains shown)
VH: EVQLVESGGGLVKPGGSLRLSCVASGFTFSDYAMDWVRQAPGKGLDWISSISSTSNYIFYADSVKGRFTISRDNAKNSLYLQMNSLRVEDSAVYYCANSYNWNYGGAFDIWGQGTMVTVSS
VL: DIQMTQSPGTLSSSPGERATLSCRASQSVSSSYFAWYQQKPGRAPRLLIYGASSRATGIPDRFSGSGSGTDFTLTISRLEPEDFAVYFCQQYGRSPLTFGGGTKVEIKR
Throughout, for CD25+ (Vg9+ cells), flow staining: test concentration or dose not given here.
Throughout, for CD71+ (Vg9+ cells), flow staining: test concentration or dose not given here.
Throughout, for Granzyme B, Luminex (supernatant): unit not given here.
Throughout, for IL6, Luminex (supernatant): unit not given here.
Throughout, for TNFα, Luminex (supernatant): unit not given here.

The target in one test is T1, TCR gamma/delta constant region (TRGDC). As to the kind of experiment: cell-based or functional assay.
As for B1, the “CD25+ (Vg9+ cells), flow staining” value was 33.3%; the “CD71+ (Vg9+ cells), flow staining” value stood at 94.9%; the “Granzyme B; Luninex (supernatant)” value amounted to 1540; the “IFNγ; Luninex (supernatant)” value came to 560. Further, the “IL6; Luninex (supernatant)” value came out at 279; the “TNFα; Luninex (supernatant)” value came to 192; the “Vg9 T cell %, flow staining” value came to 5.7%.
As to B2, the “CD25+ (Vg9+ cells), flow staining” value was 27.1%; the “CD71+ (Vg9+ cells), flow staining” value is 92.4%; the “Granzyme B; Luninex (supernatant)” value turned out to be 2630; the “IFNγ; Luninex (supernatant)” value is 1460. Besides, the “IL6; Luninex (supernatant)” value came out at 4900; the “TNFα; Luninex (supernatant)” value stood at 138; the “Vg9 T cell %, flow staining” value came out at 6.1%.
On to B3, for which the “CD25+ (Vg9+ cells), flow staining” value is 20.6%; the “CD71+ (Vg9+ cells), flow staining” value worked out at 89.6%; the “Granzyme B; Luninex (supernatant)” value was 1760; the “IFNγ; Luninex (supernatant)” value was determined as 352. Further, the “IL6; Luninex (supernatant)” value is 123; the “TNFα; Luninex (supernatant)” value came to 215; the “Vg9 T cell %, flow staining” value was found to be 3.8%.

For another test, the target named is T2, T cell receptor (TCR) Vγ9 (TRGV9). As to the kind of experiment: cell-based or functional assay.
Take B4: the “CD25+ (Vg9+ cells), flow staining” value stood at 20.4%; the “CD71+ (Vg9+ cells), flow staining” value was determined as 70.6%; the “Granzyme B, Luminex (supernatant)” value was 2160; the “IFNγ, Luminex (supernatant)” value is 796. For the same molecule, the “IL6, Luminex (supernatant)” value stood at 602; the “TNFα, Luminex (supernatant)” value was determined as 3520; the “Vg9 T cell %, flow staining” value turned out to be 3.9%.
For the molecule B5, the “CD25+ (Vg9+ cells), flow staining” value came to 25.8%; the “CD71+ (Vg9+ cells), flow staining” value turned out to be 91.6%; the “Granzyme B, Luminex (supernatant)” value came out at 2150; the “IFNγ, Luminex (supernatant)” value was found to be 1250. Moreover, the “IL6, Luminex (supernatant)” value stood at 816; the “TNFα, Luminex (supernatant)” value stood at 583; the “Vg9 T cell %, flow staining” value came to 3%.
Regarding B6, the “CD25+ (Vg9+ cells), flow staining” value was determined as 24.8%; the “CD71+ (Vg9+ cells), flow staining” value is 88.1%; the “Granzyme B, Luminex (supernatant)” value came to 1490; the “IFNγ, Luminex (supernatant)” value came to 476. In addition, the “IL6, Luminex (supernatant)” value came out at 219; the “TNFα, Luminex (supernatant)” value was 186; the “Vg9 T cell %, flow staining” value was determined as 4%.
Take B7: the “CD25+ (Vg9+ cells), flow staining” value was 15.8%; the “CD71+ (Vg9+ cells), flow staining” value was determined as 86.9%; the “Granzyme B, Luminex (supernatant)” value came out at 1060; the “IFNγ, Luminex (supernatant)” value was determined as 303. For the same molecule, the “IL6, Luminex (supernatant)” value was 166; the “TNFα, Luminex (supernatant)” value came to 61; the “Vg9 T cell %, flow staining” value stood at 3.7%.
For the molecule B8, the “CD25+ (Vg9+ cells), flow staining” value was 37.9%; the “CD71+ (Vg9+ cells), flow staining” value was determined as 95.8%; the “Granzyme B, Luminex (supernatant)” value was 3170; the “IFNγ, Luminex (supernatant)” value came out at 1150. Besides, the “IL6, Luminex (supernatant)” value was 375; the “TNFα, Luminex (supernatant)” value worked out at 5260; the “Vg9 T cell %, flow staining” value is 4.4%.
On to B9, for which the “CD25+ (Vg9+ cells), flow staining” value worked out at 46.4%; the “CD71+ (Vg9+ cells), flow staining” value was 98.8%; the “Granzyme B, Luminex (supernatant)” value is 3390; the “IFNγ, Luminex (supernatant)” value was found to be 1180. For the same molecule, the “IL6, Luminex (supernatant)” value is 225; the “TNFα, Luminex (supernatant)” value stood at 87; the “Vg9 T cell %, flow staining” value was found to be 13.9%.
Regarding B10, the “CD25+ (Vg9+ cells), flow staining” value turned out to be 32.4%; the “CD71+ (Vg9+ cells), flow staining” value came out at 93.3%; the “Granzyme B, Luminex (supernatant)” value is 3100; the “IFNγ, Luminex (supernatant)” value stood at 1600. Also, the “IL6, Luminex (supernatant)” value amounted to 761; the “TNFα, Luminex (supernatant)” value stood at 6100; the “Vg9 T cell %, flow staining” value stood at 10.5%.
For B11, the “CD25+ (Vg9+ cells), flow staining” value was 49.6%; the “CD71+ (Vg9+ cells), flow staining” value amounted to 98.3%; the “Granzyme B, Luminex (supernatant)” value stood at 3010; the “IFNγ, Luminex (supernatant)” value was 1360. The “IL6, Luminex (supernatant)” value was 385; the “TNFα, Luminex (supernatant)” value was 4910; the “Vg9 T cell %, flow staining” value is 5.2%.
As to B12, the “CD25+ (Vg9+ cells), flow staining” value is 50.9%; the “CD71+ (Vg9+ cells), flow staining” value was 98.7%; the “Granzyme B, Luminex (supernatant)” value turned out to be 1350; the “IFNγ, Luminex (supernatant)” value came to 429. Besides, the “IL6, Luminex (supernatant)” value is 161; the “TNFα, Luminex (supernatant)” value came to 96; the “Vg9 T cell %, flow staining” value turned out to be 16.1%.

Source of the values: US20220125947A1 (published 2022).
